From the DeepSol protein solubility set

Assay: soluble on expression in E. coli; label from the status in PepcDB or PDB records

## MSLFGTSTTAPAASTTPLFGSTAAAAPKPGGLFGAPAAAMSSGLFGASQTAPAPASAGLFGSTTAPTPASTSSVPLFGSTTTTASPSGGLFGAKTATTAAPAPTGGLFGASTAAPATGSLFGSTAPATGGLFGAKSTTSAAPTLGGGLFGSSTAPAAAATTSFGAPPATAAAPLGLGGIQQQNSSGGGLPNASGTATSSLTGTGDSKDASKDGEWTQAATLIRDLLPLIEDKFKKNREFMEETENMSIDNVAIEEQIDKTRGWIEEVRRDVLTATQSSERIAYLVSTDKTLCDTTKRVQEHSGSANQTTYMNAIKEHLAELCNFYGNDMDALQERVNFLRNRFEKLLTGEKSITMEELDAYFLRCDANVSNAHHHVTELGKEIEEIRDFLIEQGYTQLRKWSTTAASAAAPIASNSEMIVREGAEFFPSQSSLAIIGSSLRAPAAPAPAVGGLGLGTGTSLFGNTGTTSLFGSTATKPAFSGGSLFGATTSTATSSAAATTTTPTTSLFGSTKPATTTTPFASTVANNSSGLLFSSKK
  soluble on expression in E. coli: not soluble

## MPDDKVPTVPDKGADGSPGSSFKNPEILSSQPSESMQAVYEILIQGNNLKTGLPSIVKSQEDLQTLYSVLYGNSLKAPLIDFSKKAVVIAAAGPFNTGGYSIVPVSAIKTGKIINLVFEVKSPGPKDMVTQAFTRPYVIVSVDAEPDTEIFIEINGDAKNDKLDF
  soluble on expression in E. coli: not soluble

## MSRSPDAKEDPVECPLCMEPLEIDDINFFPCTCGYQICRFCWHRIRTDENGLCPACRKPYPEDPAVYKPLSQEELQRI
  soluble on expression in E. coli: soluble

## MNLVSLRDSPQYLERAIAYFQSKWGNENTKMVYDNCFRHSLNAENPIPQWYLLMNGDEIIGCAGLTSNDFNSRADLYPWLVALFIEEKYRGNHYANLLIEQAKKDTLKFGFSKLYLSTSHTSYYERLGFTYIGDCWHPWGESSRVYEIILKF
  soluble on expression in E. coli: not soluble

## MGSDKIHHHHHHMSAFSVEKIGLQDSQQFSKLFIDYLAQQEHIQPLYTFYPDMAGLETAIEKRSKQPINRTVLVERLKAQYKDLPVSEKVQQNIERLASEHTFTITTGHQLCLGTGPLYLILKTLSCVKLCEALKTKHADNEFVPVFWMASEDHDAAEINHFYVFGKKYTWETTQTGAVGRFTTTGISEVLETIKDIPAWLKDAYQSSVTLAEATRKVMHQLFAEYGVVVIDGDDAALKKEFTAVIEKELFEQPAVAVMNQTNRSIERHGYSIQVNPRDINLFYVKDSLRERIEKQGERFVVLHTDVSFSAGEIKKEVADHPERFSPNVVLRPLYESTILPDIAYVGGPGEIAYWLQLKEVFAVYNTFLPAIFPRMFSGVITKQQCVKLEKAHVTVAELFLSEFDLKQVVVSRSIQEEISIEAEAGKITAAFDTIASIAATVDGSLQSWAQAEKAKALKQLEDIEKKLRKAEERKHDDVIKSVLGIRDKILPNGKLQERQESVFTFLVNDAQLIEKLYQSLDPCTFNIQMCCYE
  soluble on expression in E. coli: not soluble

## MGSDKIHHHHHHMIVKAKFVKGFIRDVHPYGCRREVLNQIDYCKKAIGFRGPKKVLIVGASSGFGLATRISVAFGGPEAHTIGVSYETGATDRRIGTAGWYNNIFFKEFAKKKGLVAKNFIEDAFSNETKDKVIKYIKDEFGKIDLFVYSLAAPRRKDYKTGNVYTSRIKTILGDFEGPTIDVERDEITLKKVSSASIEEIEETRKVMGGEDWQEWCEELLYEDCFSDKATTIAYSYIGSPRTYKIYREGTIGIAKKDLEDKAKLINEKLNRVIGGRAFVSVNKALVTKASAYIPTFPLYAAILYKVMKEKNIHENCIMQIERMFSEKIYSNEKIQFDDKGRLRMDDLELRKDVQDEVDRIWSNITPENFKELSDYKGYKKEFMNLNGFDLDGVDYSKDLDIELLRKLEP
  soluble on expression in E. coli: not soluble

## MGSDKIHHHHHHMEKLLTIVVPAYNVEKYIKNCLDSFIDLSVLRSLEILIVDDGSTDSTASLAHTYEQKYPYSFKVLSKENGGHGSTINYAIPRATGKYFKVVDGDDWLDKSLLPQFVQLLKHTHSDVISNDFNLVDDKTKKVTKRRKAVSNSYHYNREWGFAEAVMDPLITIHSMTIRTDVLQKNDIRVDEHCFYEDQEYILYPIPYCTSITFSPLPLYQYRLGRSGQSVDIKMMIKRHDQHLKVLDALFEYNNVHGNLQTYKKQYLERGIAEAVDDEYQIFLAKGNDTRNVEQMKKFDEMLREEHPGVYQACSRKSVWMLRKTGFKIFPMAAWVYSRLRGN
  soluble on expression in E. coli: not soluble

## NGEVEVPKTELEEIQQQCNQVTDDSLESTRRMLNMCEESKEAGIRTLVMLDEQGEQLDRIEEGLDQINQDMKDAEKNLEGMEK
  soluble on expression in E. coli: soluble

## MSLTQTPNTGSPHRVVIVGGGAGGLELAAKLGRAHGRERVTLVDSRPFHIWKPSLHEAAAGTLDIHQEGLSYLMLANMCNFTFAQGELQGIERERRQIQVGPVADPSGQQVLPPRELSYDTLVLAMGSTSNFFNTPGAAEHAVTLDTTENAEQFRLTMLKAMVQVDLRKVHDPSARLDLVIVGGGATGVELAVELIEASHVVSAYGLPNFRADRDLVITLVEGAPRILSALPEKISRAAHARLTELGVRVETDCRVAEVGADHVVTADGRRFEATMCLWAAGIEGPPLFRQLGLPLNRLGQLEVNERLESPDPHILALGDCCAAPWKDGRTVPARAQAAHQQADYLARKLTARLRNAAEPTEAYAYHDHGSLVSLGQGSGVGSLMGKLAGRGLFVSGTLARLMYMSLHLMHHRAVLGISRTATLALARLLMRRTRPRVKLHEGHHHHHH
  soluble on expression in E. coli: soluble

## MSGFLEQRLGHCLRQMAEKGLEALLVTHLTNSYYLTGFSGTAATVLITAKRRVLITDSRYTLLAKASVEGFDIIESRTPLKVVAELLEADQIDCLGFEDQVSFSFYQAMQAELSGITLLAQSGFVEHLR
  soluble on expression in E. coli: soluble

## NIDSNKKILQEIKRYADEHEERYGRFPKTLIFAVQDLANSSSHADQIVDQARDIFGRGDSFVQKITGKVDRPLQRIREFRNRKEPGIAVTVDLLSTGVDVPDIEYIVFLRSMKSRILFEQMIGRGTRKGEH
  soluble on expression in E. coli: not soluble

## SRDGSVAPKERINIRYVPATGDTQEDVELPLSMMVVGDFTARADETPIEERTPINIDKDNFNDVLEGMSPNVKVNVENRLSDEEGAQIGVDLTFQNMKDFSPEAIAKSVPELNSLLELREALVALKGPLGNVPAFRKKIASVLQDEEARKKLLDELSIG
  soluble on expression in E. coli: not soluble

## MSLNENLQELIPTKLAAAIANPLFPAVDSQLRSGRHIGQEYLDNFAFLADFQNELDMFYRRYNVELIRAPEGFFYLRPKATTLIARSVLSELEMLVGKVLCYLYLSPERLAQQGIFSVQEVYDELLNLADESKLLKAVNQRSSGSDLDKQKLAEKVRAAVNRLRRLGMIHTVGEQNSGKFTISESVFRFGAEVRSGDDPREAQLRLIRDGEAATPDSLSQEKSAVKNDEEIEDELDEGLGEEEEGHHHHHH
  soluble on expression in E. coli: soluble

## MSLNPKIITQYKNKKVDAASTMTDISGKNILMGFWHNWPSESGQGYQQGMFAEMPLTGIDKAYNVIAVAFMKGAGIPTFKPYNLSDEAFRAQVAELNAQGRAVLISLGGADAHIELHAGQEEALAYEIIRLVEVYGFDGLDIDLEQAAITFADNRTVLPAALRMVREHYETEGKHFIISMAPEFPYLRSAARDTPLLKEITTYFPFLKEAVAFLTSFRSGGAYLAYIEALEDLYDFIAPQYYNQGGDGIWVDELNLWVTQNNDAHKKEFLYYLTDSLIHGTRGFTKIPANRLAIGLPTNNDAAATGYVINPDDVKYALDTLQADGNPIRGLMTWSVNWDNGTPKVGEAYKWEFAKRYGYLTGGEGHHHHHH
  soluble on expression in E. coli: soluble

## MSLADPNESTFARIRRTKKMRIGAVGGGAPYYMKDLASGQWKGFYVDIAKALADDMEAELEITETTWGNSVLDLQSNKIDIFFGLNPTPKRALVVDFSVPVFNNAFGILCKKDFKPKTWAELNSPDVKIAVDQGSSHDQVVSRLIPKAQISRLKTADDATAALQTGRVDAQCLITMLSLTVLKKNPSLGQFVLPTPIFATTSNAGFRRETDKTWRDYVNTWIDFNKGLGFIRNAIITNMELVGVTEADIPPGVSLEGHHHHHH
  soluble on expression in E. coli: soluble

## MNTLMTQIHELQHVAHELLYLGADGSPIYTDSFRQLNTEVLQKSDALFALKGENPEEEARLCLALLMGYNATIYDYGDKESKKQVILDRSLLVLESLPSSLLKCQLLTYCYGEVFEEELAKEAHAIIDYWDNKTLSIDEQETVDMLKMIEENQYPNNYID
  soluble on expression in E. coli: not soluble

## MQNPIDSLLYVKISAEQAGKIFENLESSIPLPIQLSEPGQKEDFKAENIKPEMILAGMLTVFAYDRENPHITYYRKIFNLLRPDIRKEMTEAAIIKIKNNDFDMAEEILLSLEGLNPDDGITKLNLALLMEERSQFCEMRELFEDALSFNKRAEELYSELILFEPPLPGVFFNAAYFFIKQKNYIKAKSLLKTYLEIENDSSETAEFRKAKASELLKTISEQALDDELFQKAYKCIDLGEEEKAAESIKLFLRKNPKVWNAWFLLGWALRRMGRWEDARSSFLKTIELLENSEISDKEPLCDVYNELAICLMELELFDEAEKHLINALSLDSENIKIISNLGTLALKQGKQEEAEAFFRTVLEINPDDKIALNVLGKPRA
  soluble on expression in E. coli: not soluble

## MGHHHHHHSHMGLSYQEELTLPFELCDVKSDIKLPLLLDYCLMVSGRQSAQLGRSNNNLLVDYKLVWIVTDYEITIHRLPHFQETIIIETKALSYNKFFCYRQFYIYDQEGGLLVDILAYFALLNPDTRKVATIPEDLVAPFETDFVKKLHRVPKMPLLEQSIDRDYYVRYFDIDMNGHVNNSKYLDWMYDVLGCEFLKTHQLLKMTLKYVKEVSPGGQITSSYHLDQLTSYHQIISDGQLNAQAMIEWRAIKPIESETD
  soluble on expression in E. coli: not soluble

## MTQLWVERTGTRRYIGRSTRGAQVLVGSEDVDGVFTPGELLKIALAACSGMASDQPLARRLGDDYQAVVKVSGAADRDQERYPLIEETMELDLSGLTEDEKERLLVVINRAVELACTVGRTLKSGTTVNLEVVDVGA
  soluble on expression in E. coli: not soluble

## MGSDKIHHHHHHMANRLNQLLKQWLSQKDTQKWVLATIIETDGSSYRKAGAMMMINDLGQYFGLLSGGCLESDIMLQARRCWDSGRNRIVEYDMREEEDLAWKLGIGCGGMVRILLQPVDEANQYLQLDSLYALLESNQTAEYCQVINDQVPLNTLKTLTLKQAAPEQAKSIEGALKKADTDRKTETQQGVFKQYLKPAPHLAVFGGGVDARPVVAIATQLGWQVTLVDPRTSYARNGHFDNSVSVVRDAIESLEQNRWLQQIDMAIIMTHNIKLDAQSLALVQKSSAKYVGMLGPIHRTDRVLDLIPTTREQLVKPLANPVGLRLGGELPESIALSMLSEAHAFIEQQNGLSISGILRQ
  soluble on expression in E. coli: not soluble

## MSLNKRKGILAIGAHPDDIELGCGASLARLAQKGIYIATVVMTTGNSGVDGIIDRHEESRNALKILGCHQTIHLNFADTRAHLQLNDMISALENIIKNQIPSDVEIIRVYTMHDADRHQDHLAVYQASMVACRAIPQILGYETPSTWLSFMPQVFESVKEEYFSLKLTALKKHKSQSQRDYMRPERLRAVAQFRGQQVNSDLGEGFVIHKMILEGHHHHHH
  soluble on expression in E. coli: not soluble

## GPGSMKTENFPRGQSAGPEGSLVEIPDHGERQQEVCHIGAPLQREIEAPAAEAGQSSDYKKPHAPHLLPVMEPVKPSSDPQLKDGRKEMPFTSALPIVVPDAPRLATQQRQVQKTKGNGSSAVPGEPDTCEGEPRAPSPGDPRPTQAFPAVEPFKRTASAKLSEARTDPRSPSASPDNESDGARVGSRQVDEEGSRPLCTLPAVELRKKPAGSTLQEEQAKELNTTHAFPVVEPDAVCTEARRSEELEDTRAGHAFPPVASGKQNTGA
  soluble on expression in E. coli: soluble

## VASGYGGIRVGGPYFDDLSKGQVFDWAPGVTLSLGLAAAHQSIVGNRLRLALDSDLCAAVTGMPGPLAHPGLVCDVAIGQSTLATQRVKANLFYRGLRFHRFPAVGDTLYTRTEVVGLRANSPKPGRAPTGLAGLRMTTIDRTDRLVLDFYRCAMLPASPDWKPGAVPGDDLSRIGADAPAPAADPTAHWDGAVFRKRVPGPHFDAGIAGAVLHSTADLVSGAPELARLTLNIAATHHDWRVSGRRLVYGGHTIGLALAQATRLLPNLATVLDWESCDHTAPVHEGDTLYSELHIESAQAHADGGVLGLRSLVYAVSDSASEPDRQVLDWRFSALQF
  soluble on expression in E. coli: soluble
